Drawing on publication PMC8113585 (2020), this text covers EC50 for one molecule.

This assay has as its target SARS-CoV-2 full-length nucleocapsid (N) protein (N-FL: 1-419) (SARS-CoV-2, UniProt P0DTC9 1-419). In words: ELISA. (ELISA stands for enzyme-linked immunosorbent assay.)

B1: human monoclonal antibody nCoV396, recombinant IgG1 (antibody, V domains shown)
VH: QVQLVESGGGVVQPGRSLRLSCAASGFTFSSYIMHWVRQAPGKGLEWVAVISYDGSNEAYADSVKGRFTISRDNSKNTLYLQMSSLRAEDTGVYYCARETGDYSSSWYDSWGRGTLVTVSS
VL: QLVLTQSPSASASLGASVKLTCTLSSGHSNYAIAWHQQQPEKGPRYLMKVNSDGSHTKGDGIPDRFSGSSSGAERYLTISSLQSEDEADYYCQTWGTGIQVFGGGTKLTVL
With B1, the half-maximal effective concentration (EC50) – broadly, the concentration giving half of the maximal effect – is 3.2 ng/mL.
